According to patent publication US20030129189A1, “Tumor necrosis factor-gamma” (priority 1994, published 2003):
Where two headings read alike, the source gives them in different places. Blank lines part the entries; values can stand above or below the molecule they belong to.

Tests used:
DR3 = test: FACS binding of FLAG-tagged soluble TL1β to cells transfected with DR3; set-up: species or system human
Protocol: A FLAG-tagged soluble form of the TL1 (aa 72-251) protein was tested for binding of cells transiently transfected with different members of the TNFR family, including TNFR2, LTβR, 4-1BB, CD27, CD30, BCMA, DR3, DR4, DR5, DR6, DcR1, DcR2, RANK, HveA, and AITR. […] The small shift (˜30%) seen when full length DR3 was used is likely due to the presence of low DR3-expressing cells while DR3 overexpressed cells undergone apoptosis.
(§1) One million cells, in 0.1 ml of FACS buffer (PBS, 0.1% BSA, 0.1% NaN3), were incubated with 0.1-1 microgram of protein or antibody at RT for 15 min. The cells were washed with 3 ml of FACS buffer, reacted with biotinylated primary antibody, and stained with PE-conjugated secondary antibody at RT for 15 min. Cells were then washed again, resuspended in 0.5 microgram/ml of propidium iodide, and live cells were gated and analyzed on a FACScan using the CellQuest software (BD Biosciences).

primary T cells = test: Caspase assay in PHA-activated primary T cells; type: cell-based, human; conditions: presence or absence of cycloheximide
Protocol: Overexpression of DR3 in cell lines induces capase activation (Chinnaiyan et al., Science 274:990-2 (1996); Kitson et al., Nature 384:372-5 (1996); Marsters et al., Curr. Biol. 6:1669-76 (1996); Bodmer et al., Immunity 6:79-88 (1997)). We tested whether TL1β could induce caspase activation in primary T cells.
TF-1 cells or PHA-activated primary T cells were seeded at 75,000 cells/well in a black 96-well plate with clear bottom (Becton Dickinson) in RPMI Medium containing 1% fetal bovine serum (Biowhittaker). […] Caspase activity was measured directly in the wells by adding equal volume of a lysis buffer containing 25 μM DEVD-rodamine 110 (Roche Molecular Biochemicals), and allowed the reaction to proceed at 37C for 1 to 2 hours. Release of rodarmine 110 was monitored with a Wallac Victor2 fluorescence plate reader with excitation filter 485 nm and emission filter 535 nm.

TNF-gamma-beta [1] = target: T1, TNF-gamma-beta (Homo sapiens, UniProt O95150); test: Coimmunoprecipitation of TNF-gamma-beta by TNFR-Fc proteins; type: binding
T1 construct: made in house; host or cells: 293T cells, transient transfection
T1 sequence (O95150 72-251 limits assumed): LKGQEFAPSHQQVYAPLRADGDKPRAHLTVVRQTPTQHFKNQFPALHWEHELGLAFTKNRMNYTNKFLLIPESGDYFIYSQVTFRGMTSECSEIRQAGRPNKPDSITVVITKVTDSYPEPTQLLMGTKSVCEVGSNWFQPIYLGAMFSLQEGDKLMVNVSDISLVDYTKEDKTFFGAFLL
Source text: The beads were then precipitated and washed extensively with PBST buffer (PBS, 0.5% Triton X-100) before boiled in SDS-sample buffer. Proteins were resolved on 4-20% Tris-Glycine gels (NOVEX), transferred to nitrocellulose membranes, and blotted with anti-Flag M2 monoclonal antibody (1 microgram/ml, Sigma) andhorseradish peroxidase (HRP)-conjugated goat anti-mouse IgG antibody (0.5 microgram/ml).

TNF-gamma-beta [2] = target: T1, TNF-gamma-beta; test: Neutralization of TNF-gamma-beta induced SEAP production in TF-1/SRE reporter cells; type: cell-based; conditions: TNF-gamma-beta at 200 ng/mL, TF1/SRE reporter cells
Protocol: (§2) Briefly, a poly-D-lysine coated 96-well plate is seeded with TF-1/SRE-SEAP cells (in RPMI+0.2% Fetal bovine serum) at 75,000 cells per well. […] Again cells were incubated overnight. After overnight incubation, conditioned media were collected and SEAP activity was determined using the SEAP Reporter Gene Assay available from Roche Molecular Biochemicals (Indianapolis, Ind.) according to the manufacturer's directions. Briefly, Conditioned media were diluted 1:4 into dilution buffer. Samples were incubated at 65C for 30 minutes to eliminate contaminating AP activity usually present in culture medium. 25 microliters of the heat-inactivated samples were mixed with equal volume of inactivation buffer (containing a mixture of differential alkaline phosphatase inhibitors). Following a 5-minute incubation at room temperature, 50 uL of alkaline phosphatase substrate (CSPD) was added to each well. Chemiluminescence signal was read 10-15 minutes later using a luminometer.
These solutions were then incubated for 1 hour at room temperature. […] After the overnight incubation, the SEAP assay was performed as described above.
(§3) The premyeloid cell line TF-1 was stably transfected with SRE/SEAP (Signal Response Element/Secreted Alkaline Phosphatase) reporter plasmid that responds to the SRE signal transduction pathway.

TNF-gamma-beta [3] = target: T2, TNF-gamma-beta (Homo sapiens, UniProt O95150); test: FACS binding of receptor-Fc proteins to cells expressing full length TNF-gamma-beta
T2 construct: expressed in transfected cells
T2 sequence (O95150 1-251): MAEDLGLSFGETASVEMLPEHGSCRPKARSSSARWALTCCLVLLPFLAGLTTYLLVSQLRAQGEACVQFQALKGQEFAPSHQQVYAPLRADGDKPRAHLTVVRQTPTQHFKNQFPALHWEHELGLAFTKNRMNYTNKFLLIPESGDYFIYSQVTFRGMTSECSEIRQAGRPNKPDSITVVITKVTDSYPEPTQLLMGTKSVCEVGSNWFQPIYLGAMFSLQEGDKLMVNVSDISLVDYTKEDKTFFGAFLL
Protocol: These cells were used to screen the Fc-fusion form of the extracellular domain of TNFR family members, including TNFR1, Fas, HveA, DR3, DR4, DR5, DR6, DcR1, DcR2, TR6, OPG, RANK, AITR, TAC1, CD40, and OX40. […] TR6 has been previously described as a decoy receptor (Pitti et al., Nature 396:699-703 (1998); Yu et al., J. Biol. Chem. 274:13733-6 (1999)) capable of competing with Fas and HveA for binding of FasL and LIGHT, respectively.
Cells resistant to 0.5 mg/ml Genticin (Invitrogen) were selected and expanded. Expression of TNF-gamma-beta mRNA was confirmed by quantitative RT-PCR analysis and surface expression of TNF-gamma-beta protein confirmed by FACS analyses using TNF-gamma-beta monoclonal antibodies.
as §1

TNF-gamma-beta [4] = target: T3, TNF-gamma-beta (Homo sapiens, UniProt O95150); test: Inhibition of TNF-gamma-beta activation of NF-κB in 293T cells; type: cell-based
T3 construct: made in house; host or cells: E. coli (untagged) or 293T (FLAG-tagged)
T3 sequence (O95150 72-251): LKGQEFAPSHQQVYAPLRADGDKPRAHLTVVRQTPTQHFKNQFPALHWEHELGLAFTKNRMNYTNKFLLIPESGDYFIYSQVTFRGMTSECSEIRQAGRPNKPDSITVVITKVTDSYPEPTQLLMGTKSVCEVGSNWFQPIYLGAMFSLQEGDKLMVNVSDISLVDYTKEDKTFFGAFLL
Protocol: To avoid spontaneous apoptosis or NF-κB activation accompanied with DR3 overexpression, a limited amount of DR3-expression DNA that by itself minimally activated these pathways was used.
293T cells were transiently transfected using LipofectAMINE and PLUS reagents according to the manufacturer's instruction (Invitrogen). For reporter assays, 293T cells, at 5×10^5 cells/well, were seeded in 6-well plates and transfected with a total of 1 microgram of DNA. pC4 DNA was used as filler DNA. Conditioned supernatant was collected 24 hr post-transfection and assayed for secreted alkaline phosphatase (SEAP) activity using the Phospha-Light™ chemiluminescent reporter gene assay system (Tropix). pCMV-lacZ was used as internal control for transfection efficiency normalization.

TNF-gamma-beta [5] = target: T3, TNF-gamma-beta; test: Inhibition of TNF-gamma-beta-mediated IFNγ secretion from T cells; type: cell-based; conditions: costimulated T cells
Protocol: The extent of the increase in IL-2 receptor expression is consistent with the moderate increase in IL-2 responsiveness compared with IL-2 itself.
1×10^5 cells/ml of purified T cells were seeded in a 24-well tissue culture plate that had been coated with anti-CD3 (0.3 microgram/ml) and anti-CD28 (5.0 microgram/ml) overnight at 4° C. […] ELISA assay for IFNγ, GM-CSF, IL-2 IL-4, IL-10 and TNFα were performed using kits purchased from R & D Systems. Recombinant human IL-2 (5 ng/ml) was used as a positive control. All samples were tested in duplicate and results were expressed as an average of duplicate samples plus or minus error.

TF-1/SRE-SEAP cells = test: SEAP assay: TNF-gamma-beta induced SEAP in TF-1/SRE-SEAP reporter cells; type: cell-based; conditions: without TNF-gamma-beta
Protocol: as §2, §3

TNF-gamma-beta [6] = target: T3, TNF-gamma-beta; test: Inhibition of TNF-gamma-beta induced caspase activation in TF-1 cells; type: cell-based; conditions: presence of cycloheximide
Protocol: Briefly, cells growing in microtiter plates are induced to undergo apoptosis, causing an activation of caspase activities. Equal volume of a caspase substrate (Asp-Glu-Val-Asp-Rhodamine 110, or DEVD-R110) solution is then added and incubated for at least 1 hour. During this incubation, cells are being lysed and free R110 is released from the substrate. The level of free R110 is determined fluorimetrically, using a fluorescence reader with excitation filter 470-500 nm and emission filter 500-560 nm.
A black 96-well plate with a clear bottom is seeded with 75,000 TF-1 cells in RPMI containing 1% fetal bovine serum and micrograms/milliliter cyclohexamide. […] Following the manufacturer's directions, an equal volume of 1×substrate solution containing 50 micromolar DEVD-R110 diluted in incubation buffer is added to each well. The 96-well plates are then incubated for 2 hours after which the plate is read in a fluorescence reader with an excitation filter at 485 nm and an emission filter at 535 nm.
These solutions were then incubated for 1 hour at room temperature.
The reagents were incubated for 1 hour at RT to allow the formation of protein-TNF-gamma-beta complexes and then added to the cells. Caspase activity was measured as described above.

Molecule: FLAG-TL1β: FLAG-tagged soluble form of the TL1 (aa 72-251) protein
binding to cells expressing full length or DD-deleted DR3 (DR3): consisitently detected

B1: FasL: Fas ligand, positive control for caspase activation in T cells (protein, UniProt P48023 130-281, looked up)
Tumor necrosis factor ligand …: QIGHPSPPPEKKELRKVAHLTGKSNSRSMPLEWEDTYGIVLLSGVKYKKGGLVINETGLYFVYSKVYFRGQSCNNLPLSHKVYMRNSKYPQDLVMMEGKMMSYCTTGQMWARSSYLGAVFNLTSADHLYVNVSELSLVNFEESQTFFGLYKL
caspase activity in PHA-activated T cells (primary T cells): readily measured

binding to cells expressing TNF-gamma-beta (FACS) (TNF-gamma-beta [3]; listed as TR6-Fc): bound efficiently
inhibition of TNF-gamma-beta activation of NF-κB (TNF-gamma-beta [4]): able to inhibit
inhibition of TNF-gamma-beta activation of NF-κB (TNF-gamma-beta [4]; listed as TR6-Fc): specifically inhibited
inhibition of TNF-gamma-beta-mediated IFNγ secretion (TNF-gamma-beta [5]): able to inhibit
B2: TR6.Fc: full length TR6 (aa 1-300) fused to the Fc domain of human IgG1 (protein)
chain: VAETPTYPWRDAETGERLVCAQCPPGTFVQRPCRRDSPTTCGPCPPRHYTQFWNYLERCRYCNVLCGEREEEARACHATHNRACRCRTGFFAHAGFCLEHASCPPGAGVIAPGTPSQNTQCQPCPPGTFSASSSSSEQCQPHRNCTALGLALNVPGSSSHDTLCTSCTGFPLSTRVPGAEECERAVIDFVAFQDISIKRLQRLLQALEAPEGWGPTPRAGRAALQLKLRRRLTELLGAQDGALLVRLLQALRVARMPGLERSVRERFLPVH
modifications: left off: a dimerising Fc or GST
notes: full length TR6 (aa 1-300) fused to the Fc domain of human IgG1
immunoprecipitation of TNF-gamma-beta (TNF-gamma-beta [1]): can be used to immunoprecipitate TNF-gamma-beta
immunoprecipitation of TNF-gamma-beta (TNF-gamma-beta [1]; listed as TR6-Fc): specifically interacted with FLAG-TNF-gamma-beta
neutralization of TNF-gamma-beta SEAP activity by receptor-Fc (TNF-gamma-beta [2]): can be neutralized by TR6.fc fusion protein in a dose dependent manner
binding to cells expressing TNF-gamma-beta (FACS) (TNF-gamma-beta [3]): specifically bind cells transfected with TNF-gamma-beta
SEAP activity of the Fc protein by itself (TF-1/SRE-SEAP cells): showed no activity
inhibition of TNF-gamma-beta induced caspase activation (TNF-gamma-beta [6]): inhibited by either DR3-Fc or TR6-Fc protein
